Assay results: the RNAGym collection of RNA variant scans (doi:10.1073/pnas.2313332121)

B1: TPR t1 (parent)
chain: GACCAAUCUGCCCUCAGAGCUCGAGAACAUCUUCGGAUGCAGAGGAGGCAGGCUUCGGUGGCGCGAUAGCGCCAACGUCCUCAACCUCCAAUGCAUCCCACCACAUGAUGAUGCCUGAAGAGCCUUGGUUUUUUG

Variants of: B1
Assay: polymerase ribozyme fitness, log enrichment relative to wild type (log ratio); higher = more active; in vitro selection for triplet polymerase activity
Method in brief: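 For each subunit of a heterodimeric triplet polymerase ribozyme, a mutant library was built by PCR and transcribed, then taken through a single in vitro selection round in triplicate. Selection involved annealing to a biotinylated primer, the partner subunit and triplets, incubation frozen at −7 °C, gel excision of extended constructs, capture on streptavidin beads and RT-PCR. Genotypes were retained after Illumina sequencing of inputs and outputs only with ≥10 input reads and ≥1 read in each output. Fitness is defined as the logarithm of a genotype's enrichment relative to wild-type enrichment, using inverse-variance-weighted averages across replicates, with the logarithm taken to base 2.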

Row | Variant | polymerase ribozyme fitness (log ratio)
1 | C4A U7G A91U | -4.91
2 | C3U G39A C40U G60C C94A | -2.98
3 | C3U G61A | -0.131
4 | C3U G61C | -2.38
5 | C4A C56A G69U A90C | -2.84
6 | C3U G44U C82A | -1.68
7 | C3U U9G | 0.724
8 | C4A A18G G71U C89A A100C G113A C124U | -4.08
9 | C3U G47A C49G G69A | -4.22
10 | C3U U92A | -2.91
11 | C3U G63C G110A | -2.26
12 | C3U U9C C88G U116C | -0.482
13 | C4A G48C C62A | -3.18
14 | C4A A43G G47C C64U C86G U125G G127C | -2.57
15 | C4A G42A | -2.74
16 | C4A G63U A119G | -0.807
17 | C3U U9A A37U G113A | -0.314
18 | C4A A16C C72A C101A C124U U130A | -4.51
19 | C4A A6C A46C C49A C72G A84C A119U C123A U126G | -2.77
20 | C3U G44U G45U G63U C88A | -2.78
21 | C3U G58A C101G | -2.57

Row | Variant | polymerase ribozyme fitness (log ratio)
22 | C3U G69U A121G U125A | 2.91
23 | C4A C72A G113A | -3.57
24 | C4A U7C C49G A50U C88G | -2.88
25 | C3U G60A | -0.489
26 | C3U G60C | -0.334
27 | C4A U59A C88A | -2.43
28 | C3U U130C | 0.391
29 | C3U U109G G110A | -4.81
30 | C3U G44A | -1.11
31 | C3U G44U | -1.62
32 | C4A U87G | -1.28
33 | C4A C12G G117A G128C | -1.61
34 | C4A U32C G69U G113A | -2.74
35 | C3U G117A U126A | -5.16
36 | C3U G48A C97A | -5.8
37 | C3U G48A C72U U129G | -4.31
38 | C4A G110A | -2.19
39 | C4A C8A G36A C72G C99G C104A C124U | -6.92
40 | C3U U30G C123A C124U | -5.14
41 | C4A A74G | -1.14
42 | C4A A74U | -1.77

Row | Variant | polymerase ribozyme fitness (log ratio)
43 | C3U G39A G69U A105C G120U G128C | -3.77
44 | C3U U9A G69C C82A | -1.37
45 | C3U U55G | -0.611
46 | C4A C64U | -1.24
47 | C3U G71U C101G | -3.08
48 | C4A U14A | -5.35
49 | C4A G10C C98U G117A A121U | -4.42
50 | C4A C12A C70U C86G G120U G128C | -2.75
51 | C3U G44U C73G U125A | -2.29
52 | C4A C56G A84G C89U C115A | -4.85
53 | C4A U78A C124G | 1.08
54 | C3U G48U C49G C99U | -4.65
55 | C4A C72A C114U C124A | -2.33
56 | C3U G45A G61U A100U C124U | 0.286
57 | C3U U14A A111U G120U | -5.57
58 | C3U G42U C56G | -2.49
59 | C4A U14G C49A C73G C86U | -4.9
60 | C4A C12A C13A A18U G44A G51A U59A U87A G110C G120A U126G | -7.29
61 | C4A A50G C70U A84C C115A | -2.59
62 | C4A A18C A43U C72A | -3.77
63 | C4A A29G U30C A74C A121U | -3.71

Row | Variant | polymerase ribozyme fitness (log ratio)
64 | C3U U9A C123A | 1.32
65 | C3U G23A | -5.54
66 | C3U G45U | -1.13
67 | C4A C72U G110A U129G | -5.59
68 | C3U U7G A29G C101U U106C | -4.76
69 | C4A G52C C114U | -6.04
70 | C4A C8U | -0.352
71 | C3U G42C A91C | -2.67
72 | C4A A37U G93A | -2.66
73 | C3U U112A G120U U125G | -2.25
74 | C4A G135U | -2.46
75 | C3U U7A A37C G71C | -0.976
76 | C4A G39C A75G C114G G120A | -5.14
77 | C3U G120U | -0.507
78 | C3U G69C U87G C124A | 0.486
79 | C4A G17A C53G C70G U106G G113A C115U U131A | -6.14
80 | C4A U59C A90C | -3.84
81 | C3U U54G A75G U92C | -2.3
82 | C4A A84C C115U G135U | -3.92
83 | C4A G63C G77C G128U | -3.69
84 | C4A U9G G42C | -3.15
